Columns and labels:
[1] = target: T1, FAM19A5 fragment 5 mutant peptide F5-4 (#4) (human); test: ELISA on alanine-substituted F5 peptides (I16 to alanine)
T1 construct: The entry already carries the alanine substitution and Ser for Cys; also called mutant peptide #4
Experimental: Overlapping peptide fragments (F1-F6, see FIG. 9) of the human FAM19A5 protein were synthesized and conjugated to BSA. Binding of the different anti-FAM19A5 antibodies to the BSA-conjugated peptide fragments F1-F6 was determined by Western blot analysis or ELISA assay. For the Western blot analysis, BSA-conjugated FAM19A5 fragments F1-F6 were separated by SDS polyacrylamide gel electrophoresis and transferred to a nitrocellulose membrane by the standard procedure. The membrane was incubated with the anti-FAM19A5 antibody (e.g., 1-65, 2 μg/ml, 1-65-scFv-rabbit Fc-SSS), and the antigen-antibody complexes were detected with the appropriate secondary antibody conjugated with horse-radish peroxidase (anti-rabbit IgG (Fc specific)-HRP, 1:4000 dilution). For the ELISA assay, the following protocol was used. FAM19A5 fragment F1-F6 (diluted to 1 μg/mL in 50 mM carbonate buffer (Biosesang) or to 20 μg/mL for high concentration analysis) were used to coat the wells of 96-well immuno plates (Thermo Scientific) (100 μL/well) overnight at 4° C. and then subsequently washed twice in 1×PBS. The plates were then blocked with the blocking buffer (100 μL/well) for 1 hour at room temperature. […] The absorption value of each of the wells was detected at 492 nm using a 96-well microplate reader (Molecular Device). […]

FAM19A5 mutant M6 = target: T2, FAM19A5 mutant M6 (human); test: ELISA on phage-displayed FAM19A5 mutants; y axis without label
T2 construct: FAM19A5 with region 6 replaced by the consensus of FAM19A1-4; The entry already carries the changes
T2 chain: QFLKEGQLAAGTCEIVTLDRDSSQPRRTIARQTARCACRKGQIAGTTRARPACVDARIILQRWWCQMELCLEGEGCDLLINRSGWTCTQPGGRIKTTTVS

FAM19A5 mutant M7 = target: T3, FAM19A5 mutant M7 (human); test: as above
T3 construct: FAM19A5 with region 7 replaced by the consensus of FAM19A1-4; The entry already carries the changes
T3 chain: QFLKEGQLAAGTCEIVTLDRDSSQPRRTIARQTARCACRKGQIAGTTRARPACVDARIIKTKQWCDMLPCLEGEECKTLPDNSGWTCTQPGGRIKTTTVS

FAM19A5 mutant M8 = target: T4, FAM19A5 mutant M8 (human); test: as above
T4 construct: FAM19A5 with region 8 replaced by the consensus of FAM19A1-4; The entry already carries the changes
T4 chain: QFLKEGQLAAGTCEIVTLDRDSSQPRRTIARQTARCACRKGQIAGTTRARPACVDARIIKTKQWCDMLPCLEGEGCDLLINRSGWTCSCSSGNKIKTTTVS

FAM19A1 = FAM19A1 (UniProt Q7Z5A9 20-133); test: Western blot on extracts of HEK293T cells stably transfected with FAM19A family genes
Experimental: (§1) HEK293T cells stably transfected with genes encoding the FAM19A family of proteins were lysed in buffer containing 50 mM Tris-HCL (pH 6.8), 2% SDS, 10% glycerol, 100 mM mercaptoethanol, and bromophenol blue. Whole-cell extracts were resolved on SDS-polyacrylamide (PAGE) gels and transferred to nitrocellulose blotting membranes in a Bio-Rad Trans-Blot electrophoresis apparatus (Hercules, CA, USA). The blots were blocked in Tris-buffered saline containing 0.3% Tween 20 and 5% skim milk, and incubated with anti-FAM19A5 antibody at room temperature for 3 h. They were then washed three times with TBS/0.3% Tween 20. Antibody binding was subsequently detected by incubation with secondary antibodies linked to horseradish peroxidase (Jackson ImmunoReserch Laboratories, West Grove, PA, USA). The blots were washed three times, and immunoreactive bands were visualized by exposure to X-ray film for 0.5 or 10 min, after application of GE healthcare ECL reagents (Buckinghamshire, UK). […] Cells were then blocked with 3% BSA and 0.1% Triton X-100 in PBS for 30 min at room temperature. Primary antibody (the anti-FAM19A5 antibody 1-65) was applied overnight at 4° C. After several washes with PBS, appropriate secondary antibodies were applied for 30 min. Subsequently, the cells were washed, mounted, and observed under a fluorescence or confocal microscope (LSM700; Zeiss, Goettingen, Germany). Nuclei were stained with Hoechst 33342.

FAM19A2 = target: T5, FAM19A2 (UniProt Q8N3H0 31-131, limits assumed); test: as above
T5 construct: Member of the group other FAM19A subfamily proteins; also called other FAM19A subfamily proteins; other proteins in the FAM19A subfamily
Experimental: as §1

FAM19A3 = target: T6, FAM19A3 (UniProt Q7Z5A8 31-133, limits assumed); test: as above
T6 construct: Member of the group other FAM19A subfamily proteins; also called other FAM19A subfamily proteins; other proteins in the FAM19A subfamily
Experimental: as §1

FAM19A4 = target: T7, FAM19A4 (UniProt Q96LR4 36-140, limits assumed); test: as above
T7 construct: Member of the group other FAM19A subfamily proteins; also called other FAM19A subfamily proteins; other proteins in the FAM19A subfamily
Experimental: as §1

Measured: binding result

T6 sequence (Q7Z5A8 31-133 limits assumed): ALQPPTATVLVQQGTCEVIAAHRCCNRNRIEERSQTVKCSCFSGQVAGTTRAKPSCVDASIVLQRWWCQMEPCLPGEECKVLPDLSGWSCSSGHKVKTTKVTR
T7 sequence (Q96LR4 36-140 limits assumed): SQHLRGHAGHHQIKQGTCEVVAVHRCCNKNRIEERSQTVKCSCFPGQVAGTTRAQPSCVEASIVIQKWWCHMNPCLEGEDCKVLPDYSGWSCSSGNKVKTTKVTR
T5 sequence (Q8N3H0 31-131 limits assumed): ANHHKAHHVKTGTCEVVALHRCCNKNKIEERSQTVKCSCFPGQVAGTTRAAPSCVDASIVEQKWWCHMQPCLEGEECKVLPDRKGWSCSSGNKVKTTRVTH
T1 sequence (peptide, as listed by the source mutant): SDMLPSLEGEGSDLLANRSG

B1: chimeric anti-FAM19A5-IgG2/4 monoclonal antibody (1-65) (antibody, V domains shown)
VH: AVTLDESGGGLQTPGGALSLVCKASGFTFSSYQMGWVRQAPGKGLEWVGVINKSGSDTSYGSAVKGRATISRDNGQSTVRLQLNNLRAEDTGTYFCAKGSASYITAATIDAWGHGTEVIVSS
VL: ALTQPSSVSANPGETVKITCSGGGSSGYGYGWYQQKSPSSAPLTVIYWNDKRPSDIPSRFSGSKSGSTHTLTITGVQAEDEAVYFCGNDDYSSDSGYVGVFGAGTTLTVL
notes: Chicken-derived variable domains; also called anti-FAM19A5 antibody 1-65; Anti-FAM19A5 (1-65)
no binding: all assays above

Reference: US20250236663A1 (NEURACLE SCIENCE, published 2025)
